According to IntAct's records for PubMed 26829474:

B1: Aurora kinase B (Homo sapiens), Q96GD4 (parent)
chain: MAQKENSYPWPYGRQTAPSGLSTLPQRVLRKEPVTPSALVLMSRSNVQPTAAPGQKVMENSSGTPDILTRHFTIDDFEIGRPLGKGKFGNVYLAREKKSHFIVALKVLFKSQIEKEGVEHQLRREIEIQAHLHHPNILRLYNYFYDRRRIYLILEYAPRGELYKELQKSCTFDEQRTATIMEELADALMYCHGKKVIHRDIKPENLLLGLKGELKIADFGWSVHAPSLRRKTMCGTLDYLPPEMIEGRMHNEKVDLWCIGVLCYELLVGNPPFESASHNETYRRIVKVDLKFPASVPMGAQDLISKLLRHNPSERLPLAQVSAHPWVRANSRRVLPPSALQSVA

Variants of: B1
Details: with 2aaa_human PPP2R1A

| effect of a mutation on the interaction | Variant |
| --- | --- |
| decreasing interaction strength | MAQKENSYPWPYGRQTAPSGLSTLPQRVLRKEPVTPSALVLMSRSNVQPTAAPGQKVMENSSGTPDILTRHFTIDDFEIGRPLGKGKFGNVYLAREKKSHFIVALKVLFKSQIEKEGVEHQLRREIEIQAHLHHPNILRLYNYFYDRRRIYLILEYAPRGELYKELQKSCTFDEQRTATIMEELADALMYCHGKKVIHRDIKPENLLLGLKGELQIADFGWSVHAPSLRRKTMCGTLDYLPPEMIEGRMHNEKVDLWCIGVLCYELLVGNPPFESASHNETYRRIVKVDLKFPASVPMGAQDLISKLLRHNPSERLPLAQVSAHPWVRANSRRVLPPSALQSVA [K215Q] |
